In US6132729 (Board of Regents, The University of Texas System, dated 2000):
Values joined by “and” are separate entries in the source; they are usually repeats but may differ in a detail not shown here. Equal entries are not always repeated. Where two headings read alike, the source gives them in different places.

Experiments:
[1] = molecular target: tTF219 (truncated Tissue Factor, extracellular domain of mature human Tissue Factor) (human)
[2] = molecular target: tTF219 (truncated Tissue Factor, extracellular domain of mature human Tissue Factor) (human); remark: listed apart in the source
H6-N'-cys-tTF219 (human) [3] = molecular target: H6-N'-cys-tTF219 (human)
[4] = molecular target: tTF219 (truncated Tissue Factor, extracellular domain of mature human Tissue Factor) (human); remark: listed apart in the source
[5] = molecular target: H6-N'-cys-tTF219 dimer (human)
[6] = molecular target: H6-tTF221-cys-C' dimer (human)
[7] = molecular target: tTF219 (truncated Tissue Factor, extracellular domain of mature human Tissue Factor) (human); remark: listed apart in the source
H6-N'-cys-tTF219 (human) [8] = molecular target: H6-N'-cys-tTF219 (human); remark: listed apart in the source
[9] = molecular target: IgG-H6-N'-cys-tTF219 (human)
[10] = molecular target: tTF219 (truncated Tissue Factor, extracellular domain of mature human Tissue Factor) (human); remark: listed apart in the source
[11] = molecular target: T1, Factor VIIa (recombinant human) (human); test: cell-based or functional assay
T1 chain 1: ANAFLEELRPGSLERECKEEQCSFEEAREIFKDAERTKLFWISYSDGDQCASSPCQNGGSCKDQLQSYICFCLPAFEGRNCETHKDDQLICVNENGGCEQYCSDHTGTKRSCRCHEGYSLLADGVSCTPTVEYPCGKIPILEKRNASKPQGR
T1 chain 2: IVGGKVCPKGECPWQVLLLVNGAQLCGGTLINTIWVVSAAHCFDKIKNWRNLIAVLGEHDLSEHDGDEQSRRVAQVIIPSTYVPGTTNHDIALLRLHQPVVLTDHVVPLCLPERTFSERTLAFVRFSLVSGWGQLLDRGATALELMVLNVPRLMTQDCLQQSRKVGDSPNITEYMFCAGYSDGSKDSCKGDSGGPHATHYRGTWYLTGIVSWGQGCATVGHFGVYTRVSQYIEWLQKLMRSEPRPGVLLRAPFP

B21-2/10H10 bispecific antibody gave a clotting time of mouse plasma on A20 cells [1] of 36 s, a tTF concentration at which plasma coagulated in 50 seconds [2] of 3 nM and a tTF concentration at which plasma coagulated in 50 seconds (H6-N'-cys-tTF219 (human) [3]) of 3 nM. It also gave a tTF concentration at which plasma coagulated in 50 seconds (H6-tTF219-cys-C' (human)) of 3 nM, a tTF concentration at which plasma coagulated in 50 seconds (H6-tTF220-cys-C' (human)) of 500 pM and a tTF concentration at which plasma coagulated in 50 seconds (H6-tTF221-cys-C' (human)) of 500 pM. It also gave a tTF concentration at which plasma coagulated in 50 seconds [4] of 500 pM, a tTF concentration at which plasma coagulated in 50 seconds (tTF220-cys-C' (human)) of 500 pM and a tTF concentration at which plasma coagulated in 50 seconds (tTF221-cys-C' (human)) of 500 pM. For the same molecule, the tTF concentration at which plasma coagulated in 50 seconds [5] was 100 pM and 200 pM, the tTF concentration at which plasma coagulated in 50 seconds [6] was 4 nM and the tTF concentration at which plasma coagulated in 50 seconds [7] was 100 pM and 200 pM. The tTF concentration at which plasma coagulated in 50 seconds (H6-N'-cys-tTF219 (human) [8]) was 1 nM, the coagulation inducing activity against the unconjugated form [9] was 5 fold reduced and the tTF concentration at which plasma coagulated in 50 seconds [9] was 5 nM. For the same molecule, the tTF concentration at which plasma coagulated in 50 seconds [10] was 1 nM.

For IgG-H6-N'-cys-tTF219, the conversion of Factor X to Xa (chromogenic substrate S-2765, OD 409 nm) (fold less active) (Factor VII in Proplex T) was 2.

B1: tTF219 (truncated Tissue Factor, extracellular domain of mature human Tissue Factor) (receptor)
chain: GSGTTNTVAAYNLTWKSTNFKTILEWEPKPVNQVYTVQISTKSGDWKSKCFYTTDTECDLTDEIVKDVKQTYLARVFSYPAGNVESTGSAGEPLYENSPEFTPYLETNLGQPTIQSFEQVGTKVNVTVEDERTLVRRNNTFLSLRDVFGKDLIYTLYYWKSSSSGKKTAKTNTNEFLIDVDKGENYCFSVQAVIPSRTVNRKSTDSPVECMGQEKGEFRE
B1 was tested, and the “coagulation-inducing potency of cell-associated tTF219 with added Factor VIIa” value [11] was ~100 fold.
